According to patent US20230034660A1, “PEPTIDES THAT ENHANCE NMDA RECEPTOR FUNCTION AND USE THEREOF” (University of Pittsburgh - Of the Commonwealth System of …, priority 2019, published 2023):

What was measured:
[1] = tested on: NMDAR; assay: NMDAR EPSCs in DCN cartwheel cells in brain slices, ZX1 potentiation; type: cell-based, mice; conditions: nimodipine 20 μM at least 20 minutes prior to recordings; ZX1 100 μM
[2] = molecular target: T1, GluN1/2A receptors (Rattus norvegicus, UniProt Q00959); assay: Zinc inhibition of glutamate-evoked currents in tSA201 cells transfected with GluN1/GluN2A; type: cell-based; conditions: vehicle, 1 mM glutamate steady-state current, read-out: IC50 for zinc block in vehicle treated cells
T1 construct: expressed in transfected cells; host or cells: human embryonic kidney tSA201 cells
Experimental: Human embryonic kidney tSA201 cells were maintained in DMEM supplemented with 10% fetal bovine serum and 1% GlutaMAX, as previously described (Glasgow and Johnson, 2014). Cells were plated in 35 mm petri dishes with three 15 mm glass coverslips treated with poly D-lysine (0.1 mg/ml) and rat-tail collagen (0.1 mg/ml) at a density of 1×10^5 cells/dish. Eighteen to 30 hours after plating, the cells were co-transfected using FuGENE 6 Transfection Reagent with cDNA encoding enhanced green fluorescent protein (eGFP), for identification of transfected cells, and WT rat NMDAR subunits GluN1-1a (GluN1; GenBank X63255) and GluN2A (GenBank M91561 in pcDNA1). GluN1-1 a and eGFP were expressed using a specialized pCl-neo vector with cDNA encoding eGFP inserted between the CMV promoter and the GluN1 open reading frame (Yi et al., 2018). […]
Whole-cell voltage-clamp recordings from tSA201 cells were performed 18-30 hours after transfection. […] Whole-cell currents were recorded using an Axopatch 200A patch-clamp amplifier (Molecular Devices), low-pass filtered at 5 kHz, and sampled at 20 kHz in pClamp10.7 (Molecular Devices). In all recordings from tSA201 cells, series resistance was compensated 85-90% and an empirically determined −6 mV liquid junction potential between the intracellular pipette solution and the extracellular recording solution was corrected. […]

[3] = molecular target: ZnT1 in mouse brain slices (mouse) (UniProt Q60738); assay: cell-based or functional assay
[4] = molecular target: T2, GluN2A subunit of NMDAR in rat cortical cultures (rat, UniProt Q00959 23-1464); assay: proximity ligation assay in rat cortical cultures (FIG. 3A legend)
T2 construct: whole, on cells; Endogenous protein in neurons, detected with a mouse anti-GluN2A antibody in the PLA
T2 sequence (Q00959 23-1464): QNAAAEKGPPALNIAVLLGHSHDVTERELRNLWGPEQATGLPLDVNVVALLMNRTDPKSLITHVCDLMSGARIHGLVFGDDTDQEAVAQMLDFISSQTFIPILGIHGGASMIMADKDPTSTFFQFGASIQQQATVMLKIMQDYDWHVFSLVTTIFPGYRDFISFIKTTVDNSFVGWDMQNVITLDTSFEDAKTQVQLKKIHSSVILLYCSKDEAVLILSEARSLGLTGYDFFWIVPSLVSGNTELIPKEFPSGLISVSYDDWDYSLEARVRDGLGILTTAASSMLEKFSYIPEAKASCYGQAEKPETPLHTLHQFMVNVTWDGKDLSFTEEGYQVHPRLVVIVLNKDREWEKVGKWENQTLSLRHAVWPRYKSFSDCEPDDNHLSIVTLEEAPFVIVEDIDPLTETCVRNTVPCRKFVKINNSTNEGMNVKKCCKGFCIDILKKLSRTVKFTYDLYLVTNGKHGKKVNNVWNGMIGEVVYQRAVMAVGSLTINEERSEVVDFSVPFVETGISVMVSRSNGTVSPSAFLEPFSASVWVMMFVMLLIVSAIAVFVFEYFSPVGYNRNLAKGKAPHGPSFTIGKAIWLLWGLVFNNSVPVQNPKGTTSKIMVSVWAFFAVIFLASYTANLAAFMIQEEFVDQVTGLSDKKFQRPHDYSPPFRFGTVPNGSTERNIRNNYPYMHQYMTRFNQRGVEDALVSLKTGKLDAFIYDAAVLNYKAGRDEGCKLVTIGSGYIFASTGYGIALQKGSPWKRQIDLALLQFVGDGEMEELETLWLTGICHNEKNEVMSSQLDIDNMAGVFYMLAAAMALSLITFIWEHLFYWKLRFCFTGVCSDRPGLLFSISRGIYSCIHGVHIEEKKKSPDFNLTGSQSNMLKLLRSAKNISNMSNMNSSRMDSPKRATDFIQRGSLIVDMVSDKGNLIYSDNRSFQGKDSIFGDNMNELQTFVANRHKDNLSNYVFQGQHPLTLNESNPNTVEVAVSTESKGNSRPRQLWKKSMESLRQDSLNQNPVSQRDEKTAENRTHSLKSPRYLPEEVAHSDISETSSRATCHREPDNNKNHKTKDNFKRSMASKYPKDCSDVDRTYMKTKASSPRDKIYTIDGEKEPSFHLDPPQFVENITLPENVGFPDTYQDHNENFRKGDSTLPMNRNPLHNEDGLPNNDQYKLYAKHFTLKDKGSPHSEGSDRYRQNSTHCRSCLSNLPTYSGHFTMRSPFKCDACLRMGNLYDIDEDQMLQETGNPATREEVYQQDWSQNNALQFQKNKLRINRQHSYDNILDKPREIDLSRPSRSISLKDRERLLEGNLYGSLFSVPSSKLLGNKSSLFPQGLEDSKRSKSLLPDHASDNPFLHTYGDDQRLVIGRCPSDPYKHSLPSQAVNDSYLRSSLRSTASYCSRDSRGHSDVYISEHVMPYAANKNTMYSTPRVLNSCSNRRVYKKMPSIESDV

T1 sequence (Q00959 23-1464, other chains not shown): as the sequence (Q00959 23-1464) above

COCCOC(=O)C1=C(C)NC(C)=C(C(=O)OC(C)C)C1c1cccc([N+](=O)[O-])c1 (centres unmarked) [Nimodipine, reference compound]
ZX1 potentiation of NMDAR EPSCs in nimodipine-treated slices [1]: 23.6±6.9%

[Zn+2] [zinc]
IC50 [2]: 21.8 ± 2.09 nM

GluN2A subunit of NMDAR in mouse brain slices (from UniProt P35436 23-1464) (receptor)
Average effect of ZX1 on L2/3 PN NMDAR Lev-EPSCs amplitudes normalized to control, auditory cortex slices incubated with scramble [3]: 159%
Average effect of ZX1 on L2/3 PN NMDAR Lev-EPSCs amplitudes normalized to control, auditory cortex slices incubated with the peptide [3]: 99%
ZX1 potentiation of NMDAR EPSCs, DCN cartwheel cells, 100 Hz, slices treated with N2AZ [3]: 1.95%
ZX1 potentiation of NMDAR-mediated synaptic currents, DCN cartwheel cells, 20 Hz, slices treated with N2AZ (3 µM) [3]: 19.4%
ZX1 potentiation of NMDAR-mediated synaptic currents, DCN cartwheel cells, 20 Hz, slices treated with scN2AZ (3 µM) [3]: 47.3%

B1: ZnT1 in rat cortical cultures (other, UniProt Q62720 1-507, looked up)
chain: MGCWGRNRGRLLCMLLLTFMFMVLEVVVSRVTASLAMLSDSFHMLSDVLALVVALVAERFARRTHATQKNTFGWIRAEVMGALVNAIFLTGLCFAILLEAVERFIEPHEMQQPLVVLSVGVAGLLVNVLGLCLFHHHSGEGQGAGHGHSHGHGHGHLAKGARKAGRAGGEAGAPPGRAPDQEPDQEETNTLVANTSNSNGLKADQAEPEKLRSDDPVDVQVNGNLIQESDSLESEDNRAGQLNMRGVFLHVLGDALGSVIVVVNALVFYFSWKGCTEDDFCVNPCFPDPCKSSVELMNSTQAPMHEAGPCWVLYLDPTLCIIMVCILLYTTYPLLKESALILLQTVPKQIDIKHLVKELRDVEGVEEVHELHVWQLAGSRIIATAHIKCEDPASYMQVAKTIKDVFHNHGIHATTIQPEFASVGSKSSVVPCELACRTQCALKQCCGTRPQVHSGKEAEKAPTVSISCLELSENLEKKPRRTKAEGSVPAVVIEIKNVPNKQPESSL
notes: whole, on cells; Endogenous protein in neurons, detected with a rabbit anti-ZnT1 antibody in the PLA; also called zinc transporter 1
binding result [4]: binds
